Measurements from patent US20140255415A1 (Novartis, published 2014).

Assays:
[1] = biological target: human LINGO-1 expressed on CHO-K1 cells (CHO-K1-hLINGO-1) (human) (UniProt Q96FE5); assay: apparent KD, FACS saturation binding on CHO-K1-hLINGO-1 cells, IgG4 format
[2] = biological target: T1, human LINGO-2 expressed on CHO-K1 cells (CHO-K1-hLINGO-2) (human, UniProt Q7L985 26-606); assay: apparent KD, FACS saturation binding on CHO-K1-hLINGO-2 cells, IgG4 format
T1 construct: range 26-606; not shown: 2 amino acid residue linker
T1 sequence (looked up): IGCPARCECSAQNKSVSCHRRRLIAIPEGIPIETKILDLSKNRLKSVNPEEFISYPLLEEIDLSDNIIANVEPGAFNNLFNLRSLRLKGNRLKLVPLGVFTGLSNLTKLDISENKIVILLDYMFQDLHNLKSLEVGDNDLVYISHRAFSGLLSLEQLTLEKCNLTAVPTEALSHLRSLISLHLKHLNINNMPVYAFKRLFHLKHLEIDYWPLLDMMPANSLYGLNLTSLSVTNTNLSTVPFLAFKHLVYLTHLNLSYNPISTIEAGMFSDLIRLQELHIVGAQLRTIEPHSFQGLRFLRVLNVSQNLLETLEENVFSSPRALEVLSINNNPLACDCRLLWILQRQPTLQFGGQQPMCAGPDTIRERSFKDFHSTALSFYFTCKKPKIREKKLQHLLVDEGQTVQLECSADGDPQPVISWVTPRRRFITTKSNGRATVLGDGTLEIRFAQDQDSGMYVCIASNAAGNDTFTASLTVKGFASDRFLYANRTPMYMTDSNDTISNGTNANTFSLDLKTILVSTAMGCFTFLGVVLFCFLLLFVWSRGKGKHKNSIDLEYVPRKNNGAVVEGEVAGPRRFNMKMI

[3] = biological target: T2, rat LINGO-1 expressed on CHO-K1 cells (CHO-K1-rLINGO-1) (rat, UniProt A0A8I5ZPI2 34-614); assay: apparent KD, FACS saturation binding on CHO-K1-rLINGO-1 cells, IgG4 format
T2 construct: range 34-614; not shown: 2 amino acid residue linker
T2 sequence: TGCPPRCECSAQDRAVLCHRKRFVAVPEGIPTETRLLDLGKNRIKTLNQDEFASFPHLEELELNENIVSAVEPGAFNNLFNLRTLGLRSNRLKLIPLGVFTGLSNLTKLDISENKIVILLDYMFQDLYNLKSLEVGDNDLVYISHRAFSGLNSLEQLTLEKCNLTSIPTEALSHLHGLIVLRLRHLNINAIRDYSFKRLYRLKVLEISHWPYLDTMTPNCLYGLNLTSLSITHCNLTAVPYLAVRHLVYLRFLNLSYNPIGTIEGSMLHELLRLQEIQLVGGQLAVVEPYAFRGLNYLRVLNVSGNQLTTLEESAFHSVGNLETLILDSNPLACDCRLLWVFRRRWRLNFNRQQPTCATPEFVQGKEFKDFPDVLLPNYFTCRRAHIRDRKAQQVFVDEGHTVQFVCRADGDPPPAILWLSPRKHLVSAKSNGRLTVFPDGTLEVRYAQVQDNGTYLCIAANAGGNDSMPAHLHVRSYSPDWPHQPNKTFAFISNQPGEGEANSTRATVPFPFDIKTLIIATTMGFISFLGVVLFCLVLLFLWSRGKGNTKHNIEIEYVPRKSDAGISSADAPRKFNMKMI
Description: (§1) Cell based affinity of anti-LINGO-1 specific antibodies is determined by FACS saturation binding experiments. The determination of the apparent KD values is carried out identical to the procedure described above using anti-LINGO-1 Fab antibodies.
(§2) In detail, CHO-K1-hLINGO-1, CHO-K1-cmLINGO-1 or CHO-K1-rLINGO-1 are detached from culture flasks by versene, washed with FACS buffer and resuspended in FACS buffer. Purified anti-LINGO-1 IgG4s are serially diluted in FACS buffer and spread into round bottom 96-well microtiter plates (NUNC™, Wiesbaden, Germany). For each concentration, duplicate wells are incubated with 1.25×10⁴ cells for 30-60 min on ice in a total volume of 100 μl. […] Using this assay the following apparent KD values can be determined (Table 3).

[4] = biological target: T3, cynomolgus monkey LINGO-1 expressed on CHO-K1 cells (CHO-K1-cmLINGO-1) (cynomolgus monkey, UniProt Q9N008 34-614); assay: apparent KD, FACS saturation binding on CHO-K1-cmLINGO-1 cells, IgG4 format
T3 construct: range 34-614; also called Cynomolgus LINGO-1; not shown: 2 amino acid residue linker
T3 sequence (looked up): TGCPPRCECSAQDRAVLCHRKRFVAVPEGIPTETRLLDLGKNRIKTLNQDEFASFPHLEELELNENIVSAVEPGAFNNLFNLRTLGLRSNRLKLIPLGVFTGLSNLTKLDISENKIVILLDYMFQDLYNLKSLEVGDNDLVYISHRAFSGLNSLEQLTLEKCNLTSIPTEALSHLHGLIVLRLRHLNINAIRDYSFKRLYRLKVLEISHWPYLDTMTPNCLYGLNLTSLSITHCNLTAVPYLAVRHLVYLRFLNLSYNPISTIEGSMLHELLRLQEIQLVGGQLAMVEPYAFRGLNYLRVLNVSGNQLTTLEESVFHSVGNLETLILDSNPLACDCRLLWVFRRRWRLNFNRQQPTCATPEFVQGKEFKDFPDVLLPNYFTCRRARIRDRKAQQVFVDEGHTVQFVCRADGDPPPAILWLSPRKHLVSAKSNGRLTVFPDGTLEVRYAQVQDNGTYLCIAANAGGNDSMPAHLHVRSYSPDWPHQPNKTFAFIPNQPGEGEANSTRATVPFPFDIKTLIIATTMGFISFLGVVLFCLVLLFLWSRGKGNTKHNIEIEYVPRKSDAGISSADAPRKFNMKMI
Description: as §1, §2

[5] = biological target: human LINGO-1 expressed on CHO-K1 cells (CHO-K1-hLINGO-1) (human) (UniProt Q96FE5); assay: FACS saturation binding on CHO-K1-hLINGO-1 cells, IgG4, with 50% human CSF against control
[6] = biological target: human LINGO-1 expressed on CHO-K1 cells (CHO-K1-hLINGO-1) (human) (UniProt Q96FE5); assay: apparent KD, FACS saturation binding on CHO-K1-hLINGO-1 cells, IgG4 pre-incubated in FACS buffer
[7] = biological target: human LINGO-1 expressed on CHO-K1 cells (CHO-K1-hLINGO-1) (human) (UniProt Q96FE5); assay: apparent KD, FACS saturation binding on CHO-K1-hLINGO-1 cells, IgG4, with 50% human cerebro-spinal fluid
[8] = biological target: human LINGO-1 expressed on CHO-K1 cells (CHO-K1-hLINGO-1) (human) (UniProt Q96FE5); assay: apparent KD, FACS saturation binding on CHO-K1-hLINGO-1 cells, IgG4 pre-incubated in FACS buffer + 2.6% BSA
[9] = biological target: human LINGO-1 expressed on CHO-K1 cells (CHO-K1-hLINGO-1) (human) (UniProt Q96FE5); assay: ratio of apparent KDs, FACS saturation binding on CHO-K1-hLINGO-1 cells, IgG4, without against with 50% human CSF
[10] = biological target: human LINGO-1 expressed on CHO-K1 cells (CHO-K1-hLINGO-1) (human) (UniProt Q96FE5); assay: apparent KD, FACS saturation binding on CHO-K1-hLINGO-1 cells, IgG4 pre-incubated in FACS buffer + 50% human serum
[11] = biological target: human LINGO-1 expressed on CHO-K1 cells (CHO-K1-hLINGO-1) (human) (UniProt Q96FE5); assay: apparent KD, FACS saturation binding on CHO-K1-hLINGO-1 cells, IgG4, without 50% human cerebro-spinal fluid (control)

B1: anti-LINGO-1 IgG4 antibody 4784 (antibody, V domains shown)
VH: QVQLKESGPALVKPTQTLTLTCTFSGFSLSSSGVGVGWIRQPPGKALEWLAHIGSDDDKYYSTSLKTRLTISKDTSKNQVVLTMTNMDPVDTATYYCARNQQYGDGYPGYFDYWGQGTLVTVSS
VL: DIELTQPPSVSVAPGQTARISCSGDNIGNYYVYWYQQKPGQAPVLVIYEDTNRPSGIPERFSGSNSGNTATLTISGTQAEDEADYYCQSYDNLHEQVFGGGTKLTVLG
[1]
  Kd: 290 pM
[2]
  Kd: 25900 pM
[3]
  Kd: 980 pM
[4]
  Kd: 620 pM
[5]
  reduction in affinity: 73%
[6]
  Kd: 280 pM
[7]
  Kd: 1570 pM
[8]
  Kd: 190 pM
[9]
  App. KD ratio w/o CSF:w/ CSF: 0.27
[10]
  Kd: 270 pM
[11]
  Kd: 430 pM
